Source: the supplement of paper PMC10567573

B1: DLC1 (parent)
chain: KRSWEEHVTHWMGQPFNSDDRNTA

Variants of: B1
Test: protein stability index of a GFP-peptide fusion (GPS, HEK-293T) (PSI 1-6); higher = more stable
Settings: c terminus: a fixed tail appended
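Further: lentivirally expressed fusions sorted by FACS into six bins by GFP to DsRed ratio, PSI derived from sequencing read proportions per bin multiplied by bin number.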

Variant | protein stability index
KRSWEEHVTHWMGQPFNSDDCNTA | 2.85
KRSWEEHVTHWMGQPFNSDDWNTA | 2.92
KRSWEEHVTHWMGQPFNSDDDNTA | 2.89
KRSWEEHVTHWMGQPFNSDDKNTA | 3.32
KRSWEEHVTHWMGQPFNSDDMNTA | 2.27
KRSWEEHVTHWMGQPFNSDDENTA | 2.99
KRSWEEHVTHWMGQPFNSDDNNTA | 3.91
KRSWEEHVTHWMGQPFNSDDSNTA | 2.9
KRSWEEHHTHWMGQPFNSDDRNTA | 4.04
KRSWEEHETHWMGQPFNSDDRNTA | 4.24
KRSWEEHFTHWMGQPFNSDDRNTA | 3.34
KRSWEEHNTHWMGQPFNSDDRNTA | 4.13
KRSWEEHWTHWMGQPFNSDDRNTA | 3.39
KRSWEEHITHWMGQPFNSDDRNTA | 2.81
KRSWEEHDTHWMGQPFNSDDRNTA | 4.42
KRSWEEHQTHWMGQPFNSDDRNTA | 3.86
KRSWEEHKTHWMGQPFNSDDRNTA | 4.26
KRSWEEHATHWMGQPFNSDDRNTA | 4.13
KRSWEEHVFHWMGQPFNSDDRNTA | 2.11
KRSWEEHVGHWMGQPFNSDDRNTA | 3.14
KRSWEEHVQHWMGQPFNSDDRNTA | 3.6
KRSWEEHVCHWMGQPFNSDDRNTA | 2.6
KRSWEEHVDHWMGQPFNSDDRNTA | 4.32
KRSWEEHVAHWMGQPFNSDDRNTA | 2.97

Variant | protein stability index
KRSWEEHVEHWMGQPFNSDDRNTA | 3.84
KRSWEEHVKHWMGQPFNSDDRNTA | 3.59
KRSWEEHVLHWMGQPFNSDDRNTA | 2.53
KRSWEEHVPHWMGQPFNSDDRNTA | 3.54
KRSWEEHVIHWMGQPFNSDDRNTA | 2.62
KRSWEEHVHHWMGQPFNSDDRNTA | 3.46
KRSWEEHVVHWMGQPFNSDDRNTA | 2.75
KRSWEEHVTHWAGQPFNSDDRNTA | 2.44
KRSWEEHVTHWCGQPFNSDDRNTA | 2.97
KRSWEEHVTHWSGQPFNSDDRNTA | 2.57
KRSWEEHVTHWGGQPFNSDDRNTA | 2.63
KRSWEEHVTHWQGQPFNSDDRNTA | 2.78
KRSWEEHVTHWVGQPFNSDDRNTA | 2.73
KRSWEEHVTHWWGQPFNSDDRNTA | 1.94
KRSWEEHVTHWMGQPFQSDDRNTA | 3.12
KRSWEEHVTHWMGQPFPSDDRNTA | 2.73
KRSWEEHVTHWMGQPFDSDDRNTA | 3.03
KRSWEEHVTHWMGQPFESDDRNTA | 2.52
KRSWEEHVTHWMGQPFFSDDRNTA | 2.77
KRSWEEHVTHWMGQPFKSDDRNTA | 2.1
KRSWEEHVTHWMGQPFISDDRNTA | 2.38
KRSWEEHVTHWMGQPFASDDRNTA | 2.64
KRSWEEHVTHWMGQPFYSDDRNTA | 2.36
KRSWEEHVTHHMGQPFNSDDRNTA | 2.95

Variant | protein stability index
KRSWEEHVTHTMGQPFNSDDRNTA | 2.49
KRSWEEHVTHNMGQPFNSDDRNTA | 2.26
KRSWEEHVTHKMGQPFNSDDRNTA | 3.61
KRSWEEHVTHDMGQPFNSDDRNTA | 2.33
KRSWEEHVTPWMGQPFNSDDRNTA | 3.52
KRSWEEHVTMWMGQPFNSDDRNTA | 1.99
KRSWEEHVTLWMGQPFNSDDRNTA | 2.33
KRSWEEHVTCWMGQPFNSDDRNTA | 2.92
KRSWEEHVTQWMGQPFNSDDRNTA | 2.56
KRSWEEHVTNWMGQPFNSDDRNTA | 2.58
KRSWEEHVTDWMGQPFNSDDRNTA | 3.39
KRSWEEHVTHWMGQPFNSFDRNTA | 1.85
KRSWEEHVTHWMGQPFNSADRNTA | 2.67
KRSWEEHVTHWMGQPFNSEDRNTA | 2.76
KRSWEEHVTHWMGQPFNSPDRNTA | 2.73
KRSWEEHVTHWMGQPFNSWDRNTA | 2.64
KRSWFEHVTHWMGQPFNSDDRNTA | 3.16
KRSWCEHVTHWMGQPFNSDDRNTA | 2.17
KRSWWEHVTHWMGQPFNSDDRNTA | 3.37
KRSWAEHVTHWMGQPFNSDDRNTA | 2.55
KRSWNEHVTHWMGQPFNSDDRNTA | 3.5
KRSWEEHVTHWMGQPCNSDDRNTA | 2.66
KRSWEEHVTHWMGQPANSDDRNTA | 2.54
KRSWEEHVTHWMGQPRNSDDRNTA | 2.27

Variant | protein stability index
KRSWEEHVTHWMGQPHNSDDRNTA | 2.77
KRSWEEHVTHWMGQPYNSDDRNTA | 2.69
KRSWEEHVTHWMGQPINSDDRNTA | 2.63
KRSWEEHVTHWMGQPTNSDDRNTA | 2.37
KRSWEEHVTHWMFQPFNSDDRNTA | 1.82
KRSWEEHVTHWMCQPFNSDDRNTA | 2.1
KRSWEEHVTHWMDQPFNSDDRNTA | 2.19
KRSWEEHVTHWMVQPFNSDDRNTA | 3.04
KRSWEEHVTHWMTQPFNSDDRNTA | 2.18
KRSWEEHVTHWMHQPFNSDDRNTA | 2.56
KRSWEEHVTHWMWQPFNSDDRNTA | 1.95
KRSWEEHVTHWMEQPFNSDDRNTA | 2.61
KRSWEEHVTHWMQQPFNSDDRNTA | 2.44
KRSWEEHVTHWMMQPFNSDDRNTA | 2.44
KRSWEEHVTHWMGAPFNSDDRNTA | 3.23
KRSWEEHVTHWMGPPFNSDDRNTA | 2.84
KRSWEEHVTHWMGTPFNSDDRNTA | 2.31
KRSWEEHVTHWMGYPFNSDDRNTA | 2.6
KRSWEEHVTHWMGEPFNSDDRNTA | 1.71
KRSWEEHVTHWMGMPFNSDDRNTA | 2.34
KRSWEEHVTHWMGDPFNSDDRNTA | 2.69
KRSWEEHVTHWMGGPFNSDDRNTA | 2.29
